This test has as its target GST-tagged Rheb-G63V expressed in HEK293T (UniProt Q15382). In words: GST pull-down and immunoblotting, band intensity quantified. The conditions noted are these: HEK293T cells, transient co-expression; mean ± SEM (n = 3); parent: est. 1.0; read off a plot.

GST-tagged Rheb-G63V expressed in HEK293T, sequence (Q15382 whole entry G63V): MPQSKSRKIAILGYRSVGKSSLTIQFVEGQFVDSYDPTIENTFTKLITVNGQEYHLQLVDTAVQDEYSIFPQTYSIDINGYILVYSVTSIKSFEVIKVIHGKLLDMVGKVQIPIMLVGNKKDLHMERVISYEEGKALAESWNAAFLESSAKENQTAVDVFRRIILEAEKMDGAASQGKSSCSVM
SFB-tagged ATP6AP1 (wild type, full length), sequence (Q15904 42-470 I469del/V470del): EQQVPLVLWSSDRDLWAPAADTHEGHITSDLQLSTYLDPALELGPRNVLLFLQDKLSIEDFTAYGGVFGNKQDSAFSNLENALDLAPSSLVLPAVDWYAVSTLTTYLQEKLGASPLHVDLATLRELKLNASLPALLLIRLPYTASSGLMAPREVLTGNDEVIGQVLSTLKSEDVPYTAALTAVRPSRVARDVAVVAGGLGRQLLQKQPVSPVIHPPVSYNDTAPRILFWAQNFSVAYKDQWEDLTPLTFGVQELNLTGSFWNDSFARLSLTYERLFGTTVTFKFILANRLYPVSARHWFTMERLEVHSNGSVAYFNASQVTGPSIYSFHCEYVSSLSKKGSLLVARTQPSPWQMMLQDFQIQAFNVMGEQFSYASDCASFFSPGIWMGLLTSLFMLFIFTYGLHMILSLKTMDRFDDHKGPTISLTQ

As to “SFB-tagged ATP6AP1 (wild type, full length) (from UniProt Q15904) I469del; V470del”, the ratio to parent (relative to ATP6AP1) came out at 0.77.
